Assays:
[1] = biological target: T1, BCMA蛋白 (BCMA protein, B cell maturation antigen) (human, UniProt Q02223 1-54); experiment: ELISA, BCMA coated at 2 μg/mL, serially diluted scFv, detection by mouse anti-HA and HRP goat anti-mouse IgG, OD450
T1 construct: extracellular domain; also called 抗原BCMA; CD269
T1 sequence (looked up): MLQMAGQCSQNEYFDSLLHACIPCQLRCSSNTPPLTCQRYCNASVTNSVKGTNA

[2] = biological target: T2, BSA蛋白 (BSA, control protein) (UniProt P02769 25-607); experiment: ELISA, BSA coated at 2 μg/mL, serially diluted scFv, detection by anti-HA and HRP goat anti-mouse IgG
T2 construct: Control protein coated at 2 μg/mL; also called 对照蛋白
T2 sequence (P02769 25-607 limits assumed): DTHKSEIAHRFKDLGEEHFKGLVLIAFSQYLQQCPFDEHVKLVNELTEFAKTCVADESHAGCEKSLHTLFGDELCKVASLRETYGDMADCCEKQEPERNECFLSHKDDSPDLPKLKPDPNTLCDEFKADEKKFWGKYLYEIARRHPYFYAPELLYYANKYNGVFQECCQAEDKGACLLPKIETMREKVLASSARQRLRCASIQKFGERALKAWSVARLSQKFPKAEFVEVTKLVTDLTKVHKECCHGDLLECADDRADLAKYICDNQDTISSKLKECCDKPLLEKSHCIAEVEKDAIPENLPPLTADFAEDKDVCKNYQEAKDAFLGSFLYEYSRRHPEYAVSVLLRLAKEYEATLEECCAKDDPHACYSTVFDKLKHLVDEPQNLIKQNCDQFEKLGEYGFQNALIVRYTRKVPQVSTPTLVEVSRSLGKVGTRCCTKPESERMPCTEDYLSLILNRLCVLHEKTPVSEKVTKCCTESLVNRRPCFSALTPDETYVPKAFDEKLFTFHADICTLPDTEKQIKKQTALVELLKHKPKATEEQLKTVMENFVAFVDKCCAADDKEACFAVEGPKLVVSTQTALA

EC50 [1]: 0.5 nM
binding result [2]: no binding
B1: 抗BCMA单链抗体B36 (anti-BCMA fully human scFv B36) (scFv)
scFv: QVQLVQSGAEVKKPGSSVKVSCKASGGTFSSYAISWVRQAPGQGLEWMGRIIPILGIANYAQKFQGRVTITADESTSTAYMELSSLRSDDTAVYYCARAGYDRSGYYFQHWGQGTLVTVSSGGGGSGGGGSGGGGSVLTQPPSVSGTPGQRVTISCSGSSSNIGSNIVNWYQQVPGTAPKLLIYSNNQRPSGVPGRFSGSKSGTSASLAIRGLQSDDEADYYCAAWDGGPRGHYVFGTGTKVSVL
notes: The purified protein carries C-terminal HA and 6xHis tags; also called 抗BCMA抗体; 抗人BCMA单链抗体; not shown: C-terminal 6xHis tag from vector pET-26b; junction residues between insert and t

From patent CN112851815A (XIAN YUFAN BIOTECHNOLOGIES CO LTD, dated 2021)
